Test results reported in the DeepSol protein solubility set.

Experiment: soluble on expression in E. coli; label from the status in PepcDB or PDB records

With “MGSDKIHHHHHHMSDTLTDSRIVYFYEAVRCGTIRAAADWLDVAPSAVSRQIGLLEKELDATLVERHARGVTPTDAGRCVIEYFREQLAHRDDLISRLQELRGLKTGQVSLVLGEGFVSDLLAGPMQQFCRQFPGIRVNLDVGSTNDVIRKISNDEGEIGLVYNPPAEPKLVSRASKRQPMMAIVGPDFPRRSHKVLTVQQLATYPMAATHPSYGTRQMMEAVEYAERVRLAPIITTNSFAILKEFVKSGLGISVMPAFAVAAELQAKELFAIEIAHPILENAEAHMVTRVGRKLSVAANKMLQMMTGQMRAFR” as the sequence, how does the “soluble on expression in E. coli” value read?
Its value is “not soluble”.

With “MGSDKIHHHHHHMSDVNASLVDGKKILVTGGAGFIGCAISERLAARASRYVVMDNLHPQIHASAVRPGALHEKAELVVADVTDAGAWDALLSDFQPEIIIHLAAETGTGQSLTEASRHALVNVVGTTRLTDALVKHGIVVEHILLTSSRAVYGEGAWQKDDGTIVYPGQRGRAQLEAAQWDFPGMTMLPSRADRTEPRPTSVYGATKLAQEHVLRAWSLATKTPLSILRLQNVYGPGQSLTNSYTGIVALFSRLAREKKVIPLYEDGNVTRDFVSIDDVADAIVATLVRTPEALSLFDIGSGQATSILDMARIIAAHYGAPEPQINGAFRDGDVRHAACDLSESLANLGWKPQWSLKRGIGELQTWIAQELDRKN” as the sequence, how does the “soluble on expression in E. coli” value read?
The value was “not soluble”.

Which “soluble on expression in E. coli” value does the source give for “MGSDKIHHHHHHMSDYYKTYDLKHVINASGKMTILGVSKVPEVAIQAQQFGDTHFFEIKDLVDKTGAYIAKKLGTEGAVVVNSASAGIAEAVAGIIGQGSKYHAYHPFSPRFTKREIILPKGQNVDYGTPEEVMIELGGGQVVEAGYANMCTPEHIEMMITEQTAAIFYVKSHHAVQKSMLTIPEALEVAHKHDLPLILDAAAEEDLKKYVDLGVDVVLFSGAKAIEGPASGLVFGKEPYIGWTKLQSLGIGRAMKIGKENILGFTTALIHYLDNGPESGDAMKARLHPFVAALNEVPHLNVKEVQDGAGRPIFRAAVTVEATSPNNAKQVTAELKAGDPAIYTREYRANEGIIEFDIRAVDQAEMDLIVTRLKEILA” here?
Its value is “not soluble”.

Which “soluble on expression in E. coli” value does the source give for “MGSDKIHHHHHHMSEALNVDIQEIAKFEKMAATWWDPDGEFKPLHQLNPLRLNYIDQTSGGLFGKKVLDVGCGGGILSESMARLGANVTGIDMGNEPLEVARLHALETGVSLNYERCTAEEHREVNREAYDVVTCMEMLEHVPDPLSVIAACCDMVKPGGYVFFSTINRNLRSYVETILGAEYLLKMLPVGTHDHGKFIRPSELIAMVDQTELLCKDATGVTYNPITGTFRYTSSVEVNYMIATVKPLE” here?
Its value is “not soluble”.

With “MGSDKIHHHHHHMSEFDAIFVGAGHNSLACAAHLALKGWKTGIFERSSTIGGAVQTREFTLPGFRHDFGAMNLSLFAGSAFHRKYANELKTQGLEFAPVADCFASAFPDGRWFGVSNDLEKTASRMAAFSAADAATWRKLVAAFPGEAEHLFRLLGSPMSARALAGTAWNLWRKKGVAGALDTGRLLLSSPRTWLEETFESPYVRATLATWGMHLDFAPDIAGGAVFPYLESMANQSFGMVLGKGGADTIIRALAGMVTSAGGKIVTGAEVSEITVSNGKATGVRLTSGETHTATKAVIAGVAPKALTGTLLPGGSGNAGFDTAMKKFRYAPGTMMIHLALDELPGWRAGSELRQFAYVHLSPSLDAMSRTYQQAMAGMLPDEPVLVVGQPTAIDPSRAPQGKHVLWVQVRMLPAEITGDAGGKIAPAHWDQVKDAYAERVLDIIETYAPGLRSKILGRSVFSPIDLERENPNLVGGDQVCGSHHLAQNFLFRPARGYAGWNTPVGNLHLTGAATWPGAGTGAASGFMLAQQLGGR” as the sequence, how does the “soluble on expression in E. coli” value read?
Its value is “not soluble”.

Which “soluble on expression in E. coli” value does the source give for “MGSDKIHHHHHHMSENPIDAFIPEDIRDLYEIHNYRNAAQVLATGCPNEFQEIIEALRVFRLTLADIRKPGGNESDIPKRISGLLRAKGWMETRIKGDLLITKVSGTIDKNLGEKDLEGMEENESDTLEKIEELKNKGQVERIVRENFLDGHKVDYVKKRVAFDLEWNSKDQTFDRDLYAFRAFHECDLIDAAILLTRSASLNAVFEKLGPELNSDGTPKTSKNGKPKLIKTKYGASTTWMGKLLYRLNACRHGGCPVLALGITPNLITDWAEYESKNT” here?
Its value is “not soluble”.

Which “soluble on expression in E. coli” value does the source give for “MGSDKIHHHHHHMSFDNLCKLLSEKHPATFASWVLGTPQTSVKVLKTELSIEPIRADYVTFLQLQGRILHLEFQTKLESTPPLPLRMLDYWVRLYRLYRLPITQVVVLLLPPAPGTVIETVFCVETTRHEYRVIRLWEENPELFLNEPALLPLAPLAATTQPQALLQQVVGKVNQLEPRQRPEISAYTQILAGLKYNQDLIRQLFREGMMRESVIYQEILAEGEQLGELRGRKAEGQLLILRQLTRRVGELPQEMLNRIETLSLEQLENLGEALLDFQAIADLEAWFGTLDIGVKMT” here?
The value was “not soluble”.

For “MGSDKIHHHHHHMSFLQEINLKLDVFEGPLDLLLHLIQKLEIDIYDIPITAVTEQYMSYIHAMQTLELEVAGEYLVMAATLMAIKSQMLLPKQELEIIDDEDFFEEEDPREALVAQLLEYRKFKYAATVLHEKEEERKLYYTKEPMDMDDYKEEDTTLPPNQINTIDLFLAFHAMLEKKKNRQPVETTVASDDVSIEEKISAISERMRQVQKGKAVSFDSFFDSYSKQEIVTTFMALLELMKTGAIYAEQENNYSEILLFNTETQQEDTTEVEETQ”, which “soluble on expression in E. coli” value is on record?
The value was “not soluble”.

Which “soluble on expression in E. coli” value does the source give for “MGSDKIHHHHHHMSGIRLVRAKITYLHDSCTFNFINENMSVKLLWSVPYRGDRMITYESVYPIQSKDVAKLIITKVRNNPKTLSVFDRSINGKTLFIGYLEYSDNSPFYLSNRVGTIFYDEYTGTGGDVISMITTADNFDLIREDLSVYGKIVHRQVQEIEAESINGPPRLTEMQEKVLRNAFEMGFFNYPKDVHLKDIAQKIGVSAVSVDQYLREAQRKLIRAYLNG” here?
The value was “not soluble”.

Which “soluble on expression in E. coli” value does the source give for “MGSDKIHHHHHHMSHLALQPGFDFQQAGKEVLEIEREGLAELDQYINQHFTLACEKMFNCTGKVVVMGMGKSGHIGRKMAATFASTGTSSFFVHPGEAAHGDLGMVTPQDVVIAISNSGESSEIAALIPVLKRLHVPLICITGRPESSMARAADVHLCVKVPKEACPLGLAPTSSTTATLVMGDALAVALLKARGFTAEDFALSHPGGALGRKLLLRVSDIMHTGDEIPHVNKHATLRDALLEITRKNLGMTVICDESMKIDGIFTDGDLRRVFDMGGDMRQLGIAEVMTPGGIRVRPGILAVDALNLMQSRHITSVLVADGDQLLGVLHMHDLLRAGVV” here?
The value was “not soluble”.

For “MGSDKIHHHHHHMSHQSTHPHHTWVQSHHPVHLETKSPPHKEPMFYYFAYGSCMCPVDLKRSLGENTHPYIIGPGVLKGYRLGFYLYLPSRKCGVLDIVKDPKASVKGVLYQLPLRLSEYLDQREGVSQNLYRHESVEIHSHSRVYQDVRTYVVVNKSEEEVAPNDWYFNVVLRGAVTCGLPEEYCWHLFNHMHKLQQRHQEQKFRRSA”, which “soluble on expression in E. coli” value is on record?
Its value is “not soluble”.

For “MGSDKIHHHHHHMSIAHQNAHTIIRDILSKQHIERVWFVGCGGSLTGFWPGKYFLDCEAKKLAVGYVTSNEFVHATPNALGKNSVVILASQQGNTAETVEAARIARQKGAATIGLVYTPGTPLCEHSDYTIKYCWARYPETVDPTQQKAAYSLWLALEVLAQTEGYAHYDEMVSAFASFESVVRGAQQQVQADARHFAEAWKTEKVIYMMGSGPSFGAAHQESICILLEMQWINSASIHSGEYFHGPFEITETGTPFILLKSSGRTRPLDDRAIRFIERYQGKLQIIDVEKVGINALHASVREYFCGLLHNCVLDVYNLALATARNHPLTTRRYMWKVEY”, which “soluble on expression in E. coli” value is on record?
Its value is “not soluble”.

For “MGSDKIHHHHHHMSIQSLLDYISVTPDIRQQGKVKHKLSAILFLTVCAVIAGADEWQEIEDFGHERLEWLKKYGDFDNGIPVDDTIARVVSNIDSLAFEKMFIEWMQECHEITDGEIIAIDGKTIRGSFDKGKRKGAIHMVSAFSNENGVVLGQVKTEAKSNEITAIPELLNLLYLKKNLITIDAMGCQKDIASKIKDKKADYLLAVKGNQGKLHHAFEEKFPVNVFSNYKGDSFSTQEISHGRKETRLHIVSNVTPELL”, which “soluble on expression in E. coli” value is on record?
Its value is “not soluble”.

For “MGSDKIHHHHHHMSISPNPNIAEIAALFGETSRAAILTSLLDGRLHTASDLAYRAGITPQTASFHLGKLAEGGLVSVEKHGRHRYYQLANGEVASLLESFLVISPQPEVKSLKQSAQMVMLQKARTCYDHLAGKLGVGITDSMLDSGYLKKDGKEFVLTEAGVQFVINFGLDLESIKKKRRSLSHACLDWSERSYHLAGALGNQLMQHFFDLGWITPLPGIRAVKVTDQGKAGFKQYFNISL”, which “soluble on expression in E. coli” value is on record?
Its value is “not soluble”.

With “MGSDKIHHHHHHMSKSEQISHMTDVMAKFVGYTGKVLPDDVTAKLEDLHKKETSKLADVIFTTMIENQRLAKELDRPSCQDTGVIQFLVECGTNFPLIGELEALLREAVIKATVDSPLRHNSVETFDEYNTGKNVGKGTPTVFWEIVPNSDQCSIYTYMAGGGCSLPGKAMVLMPGAGYEGVTRFVLDVMTSYGLNACPPLLVGVGVATSVETAALLSKKALMRPIGSHNENERAASLEKMLEDGINKIGLGPQGMSGNTSVMGVNIENTARHPSTIGVAVNVGCWSHRKGHIVFDAALNYTITSHSGVNF” as the sequence, how does the “soluble on expression in E. coli” value read?
Its value is “not soluble”.

For “MGSDKIHHHHHHMSKWLNVGKIVNTHGVRGEVRVLSTTDFEDDRFSSGKTLYVMRPNQNERVAVTVASHRKHKNFDLLCFEGYPSINDVEAFKGGRLQVPIEDRPELGEGEFFYHEIIGCSVVTIAGEELGKVKEILSPGANDVWVVQCRRGGKDLLIPYIEQVVKQVDLEKQQITIEPMEGLLE”, which “soluble on expression in E. coli” value is on record?
Its value is “not soluble”.

With “MGSDKIHHHHHHMSLIHLQADHIRPLVYLHGKVDDHEVAFLEHLNGPPKNAVRVGNTVTFIEHDQTAYSVRAERIQGVLPPAFAGVISDLESGYQFVLGGRSRLAGRPSQLVRIIPNDDNRYSYQVWLDMDTYLPLRYDMLNLEKQLLEQVLVVELIVLDDAPAILREAYKQDWPEIMPQPQREQADNWQFKWLPQGFKILVKDNHRLIGSHEAVEYIALSDGLVNISVYVARAGETALPDELMTRNGLSLAAERVGNAEVVAVGKVPAETLSRIAKSITIE” as the sequence, how does the “soluble on expression in E. coli” value read?
Its value is “not soluble”.

For “MGSDKIHHHHHHMSLPAQLRVLEVVQSLEKGGRTTRFTDTVAGLRAQKIFTVPLCISKPESWVSIPDLEVLHKTAGINWKLVFQIRKKIIKNNINLIHAHCEFSQLYASIAGVTCGIKTVATFHRSDLSKYQPNMVNKLIKLFASHFVAVSHDRLSLLTNNLKLPLNKCHVVHGGSVIEKKPTVTSINKARADLGIPLDQLMLLSIGHLGEIKGHQDTLVALSKFTKTMPALHLYIAGDGAAQEKQKLTELVNKLQINENVTFLGQINNAFSWLEACDIFIQPSVEEAFGLVFVEAGAKAKPVIATTVGGIKEIIVSKETGLLVLPSSPKAVEHALAILINSPPLRQQYGENGYKRITEHFSLTNMVNKYTDIFNQAVN”, which “soluble on expression in E. coli” value is on record?
The value was “not soluble”.

For “MGSDKIHHHHHHMSNTAQLITPSPIGLIADITELFEKTFAHFSRTLKVNADDIPEETMSFHTWSSIDNFPTLIQKYRDEYYGDNDLKPNDKALYSLWSQWYFGLIIPPMMLLLIEYPQTIDTHHKNFKVLFHHSGRPEVVYYQLKWQSQDPGTLLERYYLLLNHHVIPIAEKIESYQGINGRLLWNNIGYLMFWYLGEFKGRLGDDLYQSIINGLFMELSLPNGQDNPLYRTVMLRNGTLQRRSCCQRNKLPGVRSCHDCPLEKPPLNLIS”, which “soluble on expression in E. coli” value is on record?
The value was “not soluble”.

With “MGSDKIHHHHHHMSPHDAKSVIRRFVKEVLNDKNLAVIDEICPPDYVELDPLPGQGPGAAGLKAFLGESFFKAFPDLVWVNEEMVAEGEYVMARSTWTGTHRGEFLGIPPTHRAVKVAAWTIDHVVDGKFVDSRILVDALSLLQQLGALPAWPPPPKTFQAMVDAAYRSVPTIKAADLHRRLKREPDLLIIDVRDAAEVAQTGAIPGAINLSYGTLTYAADHTAPEDWRDPRLADHARPIVTTCGLGPLGALGGGLLHEMGFTNVQILEGGVQAWIDAGLPVVKPGDQ” as the sequence, how does the “soluble on expression in E. coli” value read?
Its value is “not soluble”.
